Target: recombinant rat F1-ATPase β-subunit (purified protein) (rat) (UniProt P10719)
Test: BiaCore surface plasmon resonance, purified F1-ATPase β-subunit

Sequence of UniProt P10719 (P10719 47-529): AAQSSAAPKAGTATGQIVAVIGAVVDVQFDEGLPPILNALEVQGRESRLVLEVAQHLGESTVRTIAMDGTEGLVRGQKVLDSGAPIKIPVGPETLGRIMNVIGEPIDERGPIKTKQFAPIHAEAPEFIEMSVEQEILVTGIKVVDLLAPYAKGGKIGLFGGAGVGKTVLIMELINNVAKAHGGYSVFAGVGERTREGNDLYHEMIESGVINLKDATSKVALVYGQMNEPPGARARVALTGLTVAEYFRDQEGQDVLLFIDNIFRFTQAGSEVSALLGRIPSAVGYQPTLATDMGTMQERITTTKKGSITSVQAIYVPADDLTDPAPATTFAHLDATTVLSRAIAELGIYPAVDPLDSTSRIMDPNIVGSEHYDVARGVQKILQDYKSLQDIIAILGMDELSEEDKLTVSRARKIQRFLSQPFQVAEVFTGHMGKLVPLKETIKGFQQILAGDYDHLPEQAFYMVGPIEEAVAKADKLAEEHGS

Kd: 150 nM
Substance: enterostatin (peptide)

Reference: patent publication US20090208976A1
